Measured values as given in patent US20220290147A1, “SYSTEM FOR REGULATING GENE EXPRESSION” (Baylor College of Medicine, priority 2019, published 2022).
Changes are numbered by the printed parent chain.

B1: Y208: SEQ ID NO: 7; polyA switch construct (nucleic acid)
DNA: TGGAGACGCCATCCACGCTGTTTTGACCTCCATAGAAGACACCGGGACCGATCCAGCCTCCCCTCGAAGCTGATCCTGAGAACTTCAGGGTGAGTCTATGGGACCCTTGATGTTTTCTTTCCCCTTCTTTTCTATGGTTAAGTTCATGTCATAGGAAGGGGAGAAGTAACAGGGTACACATATTGACCAAATCAGGGTAATTTTGCATTTGTAATTTTAAAAAATGCTTTCTTCTTTTAATATACTTTTTTGTTTATCTTATTTCTAATACTTTCCCTAATCTCTTTCTTTCAGGGCAATAATGATACAATGTATCATGCCTCTTTGCACCATTCTAAAGAATAACAGTGATAATTTCTGGGTTAAGGCAATAGCAATATTTCTGCATATAAATATTTCTGCATATAAATTGTAACTGATGTAAGAGGTTTCATATTGCTAATAGCAGCTACAATCCAGCTACCATTCTGCTTTTATTTTATGGTTGGGATAAGGCTGGATTATTCTGAGTCCAAGCTAGGCCCTTTTGCTAATCATGTTCATACCTCTTATCTTCCTCCCACAGCTCCTGGGCAACGTGCTGGTCTGTGTGCTGGCCCATCACTTTGGCAAAGAATTGGCTAGCCACACACACAAATCTGGGGAGGTGAAGAATACGACCACCTGCGTTTTATACTTCCGCGAGATCTGGGGAGGTGAAGAATACGACCACCTAATAAGATTACCGAAAGGCAATCTTATTAAAACATACCAGATCTTGCGAGGGTGTTTGTGGCAAAACATACCAGATCGAATTCGATCTGGGGAGGTGAAGAATACGACCACCTGCTACAAGTACCTAATAAAGTATAAAGTGCAAAACATACCAGATCTGTGTGTTGGTTTTTTGTGTGTTAACGGGGGAGGGGGAGGAAAGGGGGAGGGGGAGGAAAGGGGGAGGGGGAGGAAAGGGGGAGGGGGAGCGGCCGCCAACAACAACAACAACAACAACAACAACAACAACAACAACATAACAGTGTTCACTAGCAACCTCAAACAGACACCATG
B2: Y209: SEQ ID NO: 8; polyA switch construct (nucleic acid)
DNA: TCAGATCGCCTGGAGACGCCATCCACGCTGTTTTGACCTCCATAGAAGACACCGGGACCGATCCAGCCTCCCCTCGAAGCTGATCCTGAGAACTTCAGGGTGAGTCTATGGGACCCTTGATGTTTTCTTTCCCCTTCTTTTCTATGGTTAAGTTCATGTCATAGGAAGGGGAGAAGTAACAGGGTACACATATTGACCAAATCAGGGTAATTTTGCATTTGTAATTTTAAAAAATGCTTTCTTCTTTTAATATACTTTTTTGTTTATCTTATTTCTAATACTTTCCCTAATCTCTTTCTTTCAGGGCAATAATGATACAATGTATCATGCCTCTTTGCACCATTCTAAAGAATAACAGTGATAATTTCTGGGTTAAGGCAATAGCAATATTTCTGCATATAAATATTTCTGCATATAAATTGTAACTGATGTAAGAGGTTTCATATTGCTAATAGCAGCTACAATCCAGCTACCATTCTGCTTTTATTTTATGGTTGGGATAAGGCTGGATTATTCTGAGTCCAAGCTAGGCCCTTTTGCTAATCATGTTCATACCTCTTATCTTCCTCCCACAGCTCCTGGGCAACGTGCTGGTCTGTGTGCTGGCCCATCACTTTGGCAAAGAATTGGCTAGCCACACACACAAATCTGGGGAGGTGAAGAATACGACCACCTGCGTTTTATACTTCCGCGAGATCTGGGGAGGTGAAGAATACGACCACCTAATAAGATTACCGAAAGGCAATCTTATTAAAACATACCAGATCTTGCGAGGGTGTTTGTGGCAAAACATACCAGATCGAATTCGATCTGGGGAGGTGAAGAATACGACCACCTGCTACAAGTACCTAAATAAAGTATAAAGTGCAAAACATACCAGATCTGTGTGTTGGTTTTTTGTGTGTTAACGGGGGAGGGGGAGGAAAGGGGGAGGGGGAGGAAAGGGGGAGGGGGAGGAAAGGGGGAGGGGGAGCGGCCGCCAACAACAACAACAACAACAACAACAACAACAACAACAACATAACAGTGTTCACTAGCAACCTCAAACAGACACCATG
B3: Y211: SEQ ID NO: 9; polyA switch construct (nucleic acid)
DNA: B2 DNA with G691A, C771T
B4: Y196CAA-4MAZ: SEQ ID NO: 6; Y-shape polyA switch construct with 4MAZ (nucleic acid)
DNA: TCAGATCGCCTGGAGACGCCATCCACGCTGTTTTGACCTCCATAGAAGACACCGGGACCGATCCAGCCTCCCCTCGAAGCTGATCCTGAGAACTTCAGGGTGAGTCTATGGGACCCTTGATGTTTTCTTTCCCCTTCTTTTCTATGGTTAAGTTCATGTCATAGGAAGGGGAGAAGTAACAGGGTACACATATTGACCAAATCAGGGTAATTTTGCATTTGTAATTTTAAAAAATGCTTTCTTCTTTTAATATACTTTTTTGTTTATCTTATTTCTAATACTTTCCCTAATCTCTTTCTTTCAGGGCAATAATGATACAATGTATCATGCCTCTTTGCACCATTCTAAAGAATAACAGTGATAATTTCTGGGTTAAGGCAATAGCAATATTTCTGCATATAAATATTTCTGCATATAAATTGTAACTGATGTAAGAGGTTTCATATTGCTAATAGCAGCTACAATCCAGCTACCATTCTGCTTTTATTTTATGGTTGGGATAAGGCTGGATTATTCTGAGTCCAAGCTAGGCCCTTTTGCTAATCATGTTCATACCTCTTATCTTCCTCCCACAGCTCCTGGGCAACGTGCTGGTCTGTGTGCTGGCCCATCACTTTGGCAAAGAATTGGCTAGCCACACACACAAATCTGGGGAGGTGAAGAATACGACCACCTGCGTTTTATACTTCCACGAGATCTGGGGAGGTGAAGAATACGACCACCTAATAAGATTACCGAAAGGCAATCTTATTAAAACATACCAGATCTTGTGAGGGTGTTTGTGGCAAAACATACCAGATCGAATTCGATCTGGGGAGGTGAAGAATACGACCACCTGCTACAAGTACCTAATAAAGTATAAAGTGCAAAACATACCAGATCTGTGTGTTGGTTTTTTGTGTGTTAACGGGGGAGGGGGAGGAAAGGGGGAGGGGGAGGAAAGGGGGAGGGGGAGGAAAGGGGGAGGGGGAGCGGCCGCCAACAACAACAACAACAACAACAACAACAACAACAACAACATAACAGTGTTCACTAGCAACCTCAAACAGACACCATG

Tests used:
[1] = tested on: 293T cells; test: Luciferase assay: tetracycline-induced transgene expression (induction in fold) from polyA aptamer constructs; format: cell-based, human
Experimental: Cells were seeded in 96-well plates at a density of 25000-30000 cells/well. After 24 hours of incubation, each well was transfected with 50 ng of DNA vectors and were incubated with culture medium containing none or various concentration of tetracycline for an additional 18 hours. Luciferase activity was measured in relative light units (RLU) with a Polarstar Omega plate reader (BMG Labtech, USA). To make 36 mL of assay buffer, 144 μL 1M DTT, 108 μL M ATP, 252 μL 0.1M luciferin and 360 μl 0.05M CoA were added to 35 mL of basic buffer (25 mM Tricine, 0.5 mM EDTA-Na2, 0.54 mM Na-triphosphate, 16.3 mM MgSO4.7H2O, and 0.8% Triton X-100). After the cell medium was removed, 40 μL of assay buffer was added to each well, and luciferase activity was read twice with the Polarstar Omega plate reader. Induction in fold is calculated as the ratio of transgene expression in the presence vs absence of tetracycline.

[2] = tested on: alternative splicing; test: RT-PCR of tetracycline-induced alternative splicing; format: cell-based; settings: presence of Tc, compared to Y196CAA-2MAZ
Experimental: Cells transfected with the respective constructs were grown 18 hours at 37° C. in medium in the absence or presence of tetracycline. Total RNA was isolated according to the protocol supplied with RiboPure™ RNA Purification Kit (Ambion, Austin, Tex.). For RT-PCR, RT was performed using SuperScript III (invitrogen, Carlsbad, Calif.) according to manufacturer's protocol and PCR was performed using the primers targeting the beginning of the transcript and reporter gene.

| Molecule | effect on induction of inserting CAA repeats in the 5′UTR of the named construct [1] | Tc-induced alternative splicing [2] |
| --- | --- | --- |
| B1 | higher induction | – |
| B2 | higher induction | – |
| B3 | higher induction | – |
| B4 | – | far more pronounced |
